Consider 11 molecules from patent US20100260668A1 (published 2010).

Several values for one entry are separate records, joined by “and”; a condition that tells them apart may be missing. Identical values can stand only once.

What is called EC50 is the concentration giving half of the maximal effect. Lower therefore signals an effect from little substance.

Test [1] has as its target IGF2 (UniProt P01344 25-91). In words: cell-based or functional assay.
Test [2] concerns the target hIGF1 (human, UniProt P05019 49-118). In words: cell-based or functional assay.
The target in test [3] is T1, HGF (HGF-His tag) (UniProt P14210 32-728).
T1 construct: Bought reagent
T1 sequence (P14210 32-728 limits assumed): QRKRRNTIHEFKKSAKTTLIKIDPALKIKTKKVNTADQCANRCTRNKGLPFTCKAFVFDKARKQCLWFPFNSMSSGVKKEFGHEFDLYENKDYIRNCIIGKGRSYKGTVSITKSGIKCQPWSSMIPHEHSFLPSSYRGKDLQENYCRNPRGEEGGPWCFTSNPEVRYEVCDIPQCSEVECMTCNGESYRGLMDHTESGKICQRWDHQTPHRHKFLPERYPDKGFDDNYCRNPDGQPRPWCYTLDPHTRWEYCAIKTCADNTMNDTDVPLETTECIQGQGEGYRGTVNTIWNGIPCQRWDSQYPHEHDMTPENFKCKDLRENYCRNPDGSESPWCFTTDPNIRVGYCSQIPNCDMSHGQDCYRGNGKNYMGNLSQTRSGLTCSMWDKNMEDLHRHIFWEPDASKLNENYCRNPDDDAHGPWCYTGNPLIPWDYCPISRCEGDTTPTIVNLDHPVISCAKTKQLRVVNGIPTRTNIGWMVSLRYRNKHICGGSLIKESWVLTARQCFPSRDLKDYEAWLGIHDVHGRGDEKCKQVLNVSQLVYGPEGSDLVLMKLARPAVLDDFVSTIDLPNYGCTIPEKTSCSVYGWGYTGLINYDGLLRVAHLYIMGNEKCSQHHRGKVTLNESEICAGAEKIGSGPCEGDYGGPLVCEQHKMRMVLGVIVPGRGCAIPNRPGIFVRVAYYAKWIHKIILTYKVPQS
Description: Direct Bind ELISA, antigen on plate; C-terminal VD. For orientation: ELISA stands for enzyme-linked immunosorbent assay.
Description: Enzyme Linked Immunosorbent Assays to screen for antibodies that bind a desired target antigen were performed as follows. […] Plates were washed four times with PBS containing 0.02% Tween 20. Plates were blocked by the addition of 300 μL/well blocking solution (non-fat dry milk powder, various retail suppliers, diluted to 2% in PBS) for ½ hour at room temperature. Plates were washed four times after blocking with PBS containing 0.02% Tween 20.
Alternatively, one hundred microliters per well of 10 μg/ml of Histidine (His) tagged desired target antigen (R&D Systems, Minneapolis, Minn.) was added to ELISA plates coated with monoclonal mouse anti-polyHistidine antibody as described above and incubated for 1 hour at room temperature. Wells were washed four times with PBS containing 0.02% Tween 20.
One hundred microliters of antibody or DVD-Ig preparations diluted in blocking solution as described above was added to the desired target antigen plate or desired target antigen/FC fusion plate or the anti-polyHistidine antibody/His tagged desired target antigen plate prepared as described above and incubated for 1 hour at room temperature. Wells are washed four times with PBS containing 0.02% Tween 20.

The target in test [4] is T2, PlGF (UniProt P49763-2 21-149, limits assumed).
T2 construct: bought antigen coated on the ELISA plate; also called Placental GF
T2 sequence (looked up): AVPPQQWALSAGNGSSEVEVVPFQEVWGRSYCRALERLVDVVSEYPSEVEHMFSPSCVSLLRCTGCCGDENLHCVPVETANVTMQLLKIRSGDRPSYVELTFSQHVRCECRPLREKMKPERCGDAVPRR
Description: direct bind ELISA, reference antibody.

The target of test [5] is biotinylated ErbB3 (UniProt P21860 20-643, limits assumed, biotinylated). Description: capture ELISA, antibody captured by anti-human IgG Fc, biotinylated ErbB3.
Description: The plates were washed with PBS containing 0.05% Tween 20 three times and blocked with 200 μl/well of 1% BSA/PBS for 1 hour at room temperature. Fifty μl of 5 nM DVD-Ig or antibody were added to each well and incubated for 1 hour at room temperature. […] The wells were washed three times, and 100 μl of ULTRA-TMB ELISA (Pierce, Rockford, Ill.) were added per well.
Test [6] has as its target T3, HGF-His tag (UniProt P14210 32-728).
T3 construct: Bought antigen coated on the ELISA plate; not shown: His tag
Description: direct bind ELISA (ref Ab).

Test [7] has as its target T4, RON (MSP Receptor ECD-His tag) (UniProt Q04912 25-957, limits assumed).
T4 construct: extracellular domain; Bought reagent
In words: Direct Bind ELISA, antigen on plate; N-terminal VD.

T3 sequence (P14210 32-728 limits assumed): as the sequence (P14210 32-728 limits assumed) above

B1: AB010 (antibody, human IgG1, lambda, V domains shown)
VH: QVQLVQSGAEVKKPGASVKVSCKASGYTFTSYDINWVRQATGQGLEWMGWMNPNSGNTGYAQKFQGRVTMTRNTSISTAYMELSSLRSEDTAVYYCARDPYYYYYGMDVWGQGTTVTVSS
VL: QSVLTQPPSVSAAPGQKVTISCSGSSSNIENNHVSWYQQLPGTAPKLLIYDNNKRPSGIPDRFSGSKSGTSATLGITGLQTGDEADYYCETWDTSLSAGRVFGGGTKLTVLG
For the molecule B1, the “pIGFR1 Cellular Assay (IGF2 induced IC50 nM)” value in test [1] is 0.3 nM. Besides, the “pIGF1R Cellular Assay (hIGF1 Neutralization IC50 nM)” value in test [2] was 1.7 nM.

B2: DVD045 (VEGF (seq. 1) and HGF (seq. 1) DVD-Ig) (bispecific antibody, IgG1)
VH: EVQLVESGGGLVQPGGSLRLSCAASGYTFTNYGMNWVRQAPGKGLEWVGWINTYTGEPTYAADFKRRFTFSLDTSKSTAYLQMNSLRAEDTAVYYCAKYPHYYGSSHWYFDVWGQGTLVTVSSASTKGPQVQLVESGGGLVKPGGSLRLSCAASGFTFSDYYMSWIRQAPGKGLEWVSYISSSGSTIYYADSVKGRFTISRDNAKNSLYLQMNSLRAEDTAVYYCARDEYNSGWYVLFDYWGQGTLVTVSS
VL: DIQMTQSPSSLSASVGDRVTITCSASQDISNYLNWYQQKPGKAPKVLIYFTSSLHSGVPSRFSGSGSGTDFTLTISSLQPEDFATYYCQQYSTVPWTFGQGTKVEIKRTVAAPDIQMTQSPSSVSASVGDRVTITCRASQGISSWLAWYQQKPGKAPNLLIYEASSLQSGVPSRFGGSGSGTDFTLTISSLQPEDFATYYCQQANGFPWTFGQGTKVEIKR
notes: HC vector V1 (wild-type hIgG1 constant), LC vector V2 (kappa constant); also called DVD045H; DVD045L
Turning to B2, in test [3], it took 185000 pM to reach a half-maximal effect (EC50).

B3: AB047 (antibody, human IgG1, kappa, V domains shown)
VH: QVQLQQSGAELVKPGASVKISCKASGYTFTDYYINWVKLAPGQGLEWIGWIYPGSGNTKYNEKFKGKATLTIDTSSSTAYMQLSSLTSEDTAVYFCVRDSPFFDYWGQGTLLTVSS
VL: DIVLTQSPDSLAVSLGERVTMNCKSSQSLLNSGMRKSFLAWYQQKPGQSPKLLIYWASTRESGVPDRFTGSGSGTDFTLTISSVQAEDVAVYYCKQSYHLFTFGSGTKLEIKR
Consider B3, for which the EC50 in test [4] was 130 pM and 140 pM and 170 pM.

B4: AB063 (antibody, human IgG1, kappa, V domains shown)
VH: EVQLVESGGGLVQPGGSLRLSCAASGFTFSIYSMNWVRQAPGKGLEWVSYISSSSSTIYYADSVKGRFTISRDNAKNSLYLQMNSLRDEDTAVYYCARDRGDFDAFDIWGQGTMVTVSS
VL: DIQMTQSPSSLSASVGDRVTITCQASQDITNYLNWYQQKPGKAPKLLIYDASNLETGVPSRFSGSGSGTDFTFTISSLQPEDIATYNCQQCENFPITFGQGTRLEIKR
For B4, the EC50 in test [5] was found to be 670 pM.

B5: AB074 (antibody, human IgG1, kappa, V domains shown)
VH: QVQLKQSGPGLVQPSQSLSITCTVSGFSLTTYGIHWVRQSPGKGLEWLGVMWSGGDTDYDAAFISRLSISKDNSKSQVFFKMNSLQANDTGIYYCARYRFYGMDYWGQGTSVTVSS
VL: AIQMTQSSSSFSVSLGDRVTITCKASEDIYNRFAWYQQKPGNAPRLLISGAASLEAGVPSRFSGSGSGQDYTLSITSLQTEDVATYYCQQYWSTPWTFGGGTKLEIKR
On to B5, for which a half-maximal effect in test [4] (EC50) was put at 490 pM.

B6: AB062 (antibody, human IgG1, kappa, V domains shown)
VH: QVQLQQWGAGLLKPSETLSLTCAVYGGSFSGYYWSWIRQPPGKGLEWIGEINHSGSTNYNPSLKSRVTISVETSKNQFSLKLSSVTAADTAVYYCARDKWTWYFDLWGRGTLVTVSS
VL: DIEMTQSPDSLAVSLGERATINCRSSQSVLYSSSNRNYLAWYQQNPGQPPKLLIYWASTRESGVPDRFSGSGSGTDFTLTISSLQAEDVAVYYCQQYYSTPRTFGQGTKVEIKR
Molecule B6 showed an EC50 in test [5] of 260 pM.

B7: AB079 (antibody, human IgG1, kappa, V domains shown)
VH: EVQLVQSGAEVKKPGESLKISCKGSGYSFTTYWMHWVRQMPGKGLEWMGEINPTNGHTNYNPSFQGQVTISADKSISTAYLQWSSLKASDTAMYYCARNYVGSIFDYWGQGTLVTVSS
VL: DIQMTQSPSSLSASVGDRVTITCKASENVVSYVSWYQQKPGKAPKLLIYGASNRNTGVPSRFSGSGSGTDFTLTISSLQPEDFATYYCGQSYNYPYTFGQGTKLEIKR
notes: Vectors V1/V2
With B7, the EC50 in test [6] was 480 pM and 390 pM and 400 pM and 410 pM.

B8: DVD041 (bispecific antibody, human IgG1, lambda)
heavy: not shown
light: DIQMTQSPSSLSASVGDRVTITCSASQDISNYLNWYQQKPGKAPKVLIYFTSSLHSGVPSRFSGSGSGTDFTLTISSLQPEDFATYYCQQYSTVPWTFGQGTKVEIKRTVAAPQSVLTQPPSVSAAPGQKVTISCSGSSSNIENNHVSWYQQLPGTAPKLLIYDNNKRPSGIPDRFSGSKSGTSATLGITGLQTGDEADYYCETWDTSLSAGRVFGGGTKLTVLGQPKAAPSVTLFPPSSEELQANKATLVCLISDFYPGAVTVAWKADSSPVKAGVETTTPSKQSNNKYAASSYLSLTPEQWKSHRSYSCQVTHEGSTVEKTVAPTECS
With B8, in test [1], the “C-terminal VD pIGFR1 Cellular Assay (IGF2 induced IC50 nM)” value was 1.5 nM. In addition, in test [2], the “C-terminal VD pIGF1R Cellular Assay (hIGF1 Neutralization IC50 nM)” value was 16.8 nM.

B9: DVD033 (RON (seq. 1) and HGF (seq. 1) DVD-Ig) (bispecific antibody, IgG1)
VH: EVQLVQSGGGLVKPGGSLRLSCAASGFTFSSYAMHWVRQAPGKGLEWVAVISYDGSNKYYADSVKGRFTISRDNSKNTLYLQMNSLRAEDTAVYYCARFSGWPNNYYYYGMDVWGQGTTVTVSSASTKGPQVQLVESGGGLVKPGGSLRLSCAASGFTFSDYYMSWIRQAPGKGLEWVSYISSSGSTIYYADSVKGRFTISRDNAKNSLYLQMNSLRAEDTAVYYCARDEYNSGWYVLFDYWGQGTLVTVSS
VL: DVVMTQSPLSLPVTPGEPASISCRSSQSLLHSNGFNYVDWYLQKPGQSPHLLIYFGSYRASGVPDRFSGSGSGTDFTLKISRVEAEDVGVYYCMQALQTPPWTFGQGTKVEIRRTVAAPDIQMTQSPSSVSASVGDRVTITCRASQGISSWLAWYQQKPGKAPNLLIYEASSLQSGVPSRFGGSGSGTDFTLTISSLQPEDFATYYCQQANGFPWTFGQGTKVEIKR
notes: Outer AB005, inner AB012; HC vector V1 (wild-type hIgG1 constant), LC vector V2 (kappa constant); also called DVD033H; DVD033L
Take B9: the EC50 in test [7] was 220 pM; in test [3], 12000 pM.

B10: AB012 (antibody, human IgG1, kappa, V domains shown)
VH: QVQLVESGGGLVKPGGSLRLSCAASGFTFSDYYMSWIRQAPGKGLEWVSYISSSGSTIYYADSVKGRFTISRDNAKNSLYLQMNSLRAEDTAVYYCARDEYNSGWYVLFDYWGQGTLVTVSS
VL: DIQMTQSPSSVSASVGDRVTITCRASQGISSWLAWYQQKPGKAPNLLIYEASSLQSGVPSRFGGSGSGTDFTLTISSLQPEDFATYYCQQANGFPWTFGQGTKVEIKR
notes: Vectors V1/V2
In the case of B10, the EC50 in test [6] is 150 pM and 170 pM and 160 pM.

B11: DVD048 (RON (seq. 1) and VEGF (seq. 1) DVD-Ig) (bispecific antibody, IgG1)
VH: EVQLVQSGGGLVKPGGSLRLSCAASGFTFSSYAMHWVRQAPGKGLEWVAVISYDGSNKYYADSVKGRFTISRDNSKNTLYLQMNSLRAEDTAVYYCARFSGWPNNYYYYGMDVWGQGTTVTVSSASTKGPEVQLVESGGGLVQPGGSLRLSCAASGYTFTNYGMNWVRQAPGKGLEWVGWINTYTGEPTYAADFKRRFTFSLDTSKSTAYLQMNSLRAEDTAVYYCAKYPHYYGSSHWYFDVWGQGTLVTVSS
VL: DVVMTQSPLSLPVTPGEPASISCRSSQSLLHSNGFNYVDWYLQKPGQSPHLLIYFGSYRASGVPDRFSGSGSGTDFTLKISRVEAEDVGVYYCMQALQTPPWTFGQGTKVEIRRTVAAPDIQMTQSPSSLSASVGDRVTITCSASQDISNYLNWYQQKPGKAPKVLIYFTSSLHSGVPSRFSGSGSGTDFTLTISSLQPEDFATYYCQQYSTVPWTFGQGTKVEIKR
notes: HC vector V1 (wild-type hIgG1 constant), LC vector V2 (kappa constant); also called DVD048H; DVD048L
Regarding B11, in test [7], the midpoint of the response, the EC50, lay at 460 pM.
